According to patent publication US20100034831A1 (DOMANTIS, published 2010):

T1: mouse TNFR1 on L929 fibroblasts (mouse, UniProt P25118 30-454)
T1 sequence (looked up): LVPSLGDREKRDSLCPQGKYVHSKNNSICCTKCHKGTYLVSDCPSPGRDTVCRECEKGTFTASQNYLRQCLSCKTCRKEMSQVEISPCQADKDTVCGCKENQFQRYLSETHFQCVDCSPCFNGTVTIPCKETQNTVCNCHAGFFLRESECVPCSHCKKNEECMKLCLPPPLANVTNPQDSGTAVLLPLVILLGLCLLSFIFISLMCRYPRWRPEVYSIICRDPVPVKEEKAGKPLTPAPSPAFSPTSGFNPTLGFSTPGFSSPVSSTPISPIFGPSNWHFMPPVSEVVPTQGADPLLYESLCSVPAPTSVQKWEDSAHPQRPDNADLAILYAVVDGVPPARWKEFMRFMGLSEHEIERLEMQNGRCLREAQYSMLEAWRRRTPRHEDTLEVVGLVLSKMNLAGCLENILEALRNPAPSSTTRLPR

B1: TAR2m-21-23 (anti-TNFR1 dAb monomer) (other)
VH: EVQLLESGGGLVQPGGSLRLSCAASGFTFNRYSMGWLRQAPGKGLEWVSRIDSYGRGTYYEDPVKGRFSISRDNSKNTLYLQMNSLRAEDTAVYYCAKISQFGSNAFDYWGQGTQVTVSS
B2: PEG DOM1M (anti-TNFR1 dAb monomer TAR2m21-23 PEGylated with a 40 kDa polyethyleneglycol) (other)
VH: B1 VH
modifications: PEGylated with a 40 kDa polyethyleneglycol (attachment site not stated)
B3: TAR2m-15-12 (anti-TNFR1 dAb) (other)
chain: DIQMTQSPSSLSASVGDRVTITCRASQYIHTSVQWYQQKPGKAPKLLIYGSSRLHSGVPSRFSGSGSGTDFTLTISSLQPEDFATYYCQQNHYSPFTYGQGTKVEIKR

Target: T1, mouse TNFR1 on L929 fibroblasts
Experiment: cell-based or functional assay

Q: Which “Potency, ND50 L929 assay” value does the source give for B1 here?
A: Its value is 1 nM.

Q: With B2 as the binder, how does the “Potency, ND50 L929 assay” value read?
A: Its value is 1 nM.

Q: With B3 as the binder, how does the “Potency, ND50 L929 assay” value read?
A: The value was 5 nM.
